Experimental data from paper PMC10589233.

Target: human SLC15A4 of the SLC15A4/ALFA_Nanobody/C5 complex (cryo-EM sample) (human) (UniProt Q8N697)
Experiment: cryo-EM structure; purified SLC15A4/ALFA_Nanobody/C5 complex, 10 µM C5 in all buffers and 100 µM added to peak SEC fractions, 15 mg/ml; 2D averages showed dimeric and monomeric forms; the dimer resolved at 2.50 Å

## human SLC15A4 of the SLC15A4/ALFA_Nanobody/C5 complex (cryo-EM sample) (from UniProt Q8N697 1-577) (natural protein)
  stoichiometry N: 2
